Measured values taken from patent publication US20200055939A1 (Genentech, published 2020).
Changes are numbered by the printed parent chain. “And” between values parts separate entries of the source, which are not always exact repeats. Equal entries are not always repeated. Where two headings read alike, the source gives them in different places. One block for each binder: values may come before it.

Legend:
[1] = target: T1, MICA.008.a3.T204-S297.R279N.mIgG2a.Glyco16 (human; mouse, UniProt Q29983 204-297, engineered N-linked glycosylation site R279N); assay: ELISA, coated variant;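 also: ELISA with plates coated at 2 ug/ml with MICA*008 alpha 3 glycosylation variants as murine IgG2a Fc fusions, antibody binding detected by HRP anti-human IgG Fc and TMB absorbance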
T1 construct: not shown: murine IgG2a Fc
T1 chain: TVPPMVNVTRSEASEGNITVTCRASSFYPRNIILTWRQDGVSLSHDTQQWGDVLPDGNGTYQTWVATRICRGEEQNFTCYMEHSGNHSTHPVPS

[2] = target: T2, MICA.008.a3.T204-S297.G243N.mIgG2a.Glyco14 (human; mouse, UniProt Q29983 204-297, engineered N-linked glycosylation site G243N); assay: ELISA, coated variant;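 also: ELISA with plates coated at 2 ug/ml with MICA*008 alpha 3 glycosylation variants as murine IgG2a Fc fusions, antibody binding detected by HRP anti-human IgG Fc and TMB absorbance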
T2 construct: not shown: murine IgG2a Fc
T2 chain: T1 chain with G40N, N76R

[3] = target: T3, MICA.008.a3.T204-S297.E215N.G243N.H248N.R279N.C-terminal insert of N298.G299.S300.mIgG2a.Glyco4 … (human; mouse, engineered N-linked glycosylation sites E215N, G243N, H248N, R279N and inserted N298); assay: ELISA, coated variant;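 also: ELISA with plates coated at 2 ug/ml with MICA*008 alpha 3 glycosylation variants as murine IgG2a Fc fusions, antibody binding detected by HRP anti-human IgG Fc and TMB absorbance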
T3 construct: not shown: murine IgG2a Fc

[4] = target: T4, MICA.008.a3.R202-S297.R202N mIgG2a.Glyco11 (human; mouse, UniProt Q29983 203-297, engineered N-linked glycosylation site R202N); assay: ELISA, coated variant;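 also: ELISA with plates coated at 2 ug/ml with MICA*008 alpha 3 glycosylation variants as murine IgG2a Fc fusions, antibody binding detected by HRP anti-human IgG Fc and TMB absorbance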
T4 construct: not shown: murine IgG2a Fc
T4 chain: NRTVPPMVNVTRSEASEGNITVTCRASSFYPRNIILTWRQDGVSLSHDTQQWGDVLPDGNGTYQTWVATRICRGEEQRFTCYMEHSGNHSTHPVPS

[5] = target: T5, MICA.008.a3.T204-S297.H248N.mIgG2a.Glyco15 (human; mouse, UniProt Q29983 204-297, engineered N-linked glycosylation site H248N); assay: ELISA, coated variant
T5 construct: not shown: murine IgG2a Fc
T5 chain: T1 chain with H45N, N76R

[6] = target: T6, MICA.008.a3.T204-S297.C-terminal insert of N298.G299.S300.mIgG2a.Glyco17 (human; mouse, UniProt Q29983 204-297, engineered N-linked glycosylation site at inserted N298); assay: ELISA, coated variant
T6 construct: not shown: murine IgG2a Fc
T6 chain: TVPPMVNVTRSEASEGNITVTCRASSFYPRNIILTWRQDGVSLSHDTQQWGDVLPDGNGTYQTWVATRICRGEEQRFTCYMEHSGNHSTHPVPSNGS

[7] = target: T7, MICA.008.a3.T204-S297.I236T.mIgG2a.Glyco13 (human; mouse, UniProt Q29983 204-297, engineered N-linked glycosylation site created by I236T); assay: ELISA, coated variant
T7 construct: not shown: murine IgG2a Fc
T7 chain: T1 chain with I33T, N76R

[8] = target: T8, MICA.008.a3.T204-S297.E215N.mIgG2a.Glyco12 (human; mouse, UniProt Q29983 204-297, engineered N-linked glycosylation site E215N); assay: ELISA, coated variant
T8 construct: not shown: murine IgG2a Fc
T8 chain: T1 chain with E12N, N76R

[9] = target: T9, MICA004.His (human MICA*004 alpha 3 domain, His tagged) (human); assay: SPR, antibody captured;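 also: SPR with antibody held by surface-bound anti-Fc while His-tagged alpha three domains flow over, Kd derived by fitting a one-to-one binding model to sensograms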
T9 construct: also called huMICA*004 alpha 3-his
T9 chain: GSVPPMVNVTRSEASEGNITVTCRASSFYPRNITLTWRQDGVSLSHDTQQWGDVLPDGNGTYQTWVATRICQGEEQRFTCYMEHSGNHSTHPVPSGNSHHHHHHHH

[10] = target: T10, MICA008.His (human MICA*008 alpha 3 domain, His tagged) (human); assay: SPR, antibody captured;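 also: SPR with antibody held by surface-bound anti-Fc while His-tagged alpha three domains flow over, Kd derived by fitting a one-to-one binding model to sensograms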
T10 construct: Also used for FPOP (expressed in CHO); also called huMICA*008 alpha 3-his; MICA*008 a3
T10 chain: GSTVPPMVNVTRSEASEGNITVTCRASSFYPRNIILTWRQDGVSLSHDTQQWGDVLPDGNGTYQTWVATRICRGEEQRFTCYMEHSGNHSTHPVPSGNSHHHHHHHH

[11] = target: T11, MICA002.His (human MICA*002 alpha 3 domain, His tagged) (human); assay: SPR, antibody captured;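 also: SPR with antibody held by surface-bound anti-Fc while His-tagged alpha three domains flow over, Kd derived by fitting a one-to-one binding model to sensograms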
T11 construct: also called huMICA*002 alpha 3-his
T11 chain: T10 chain with S28G, R32W, I35T, T37S, R73Q

[12] = target: T12, MICB005.His (human MICB*005 alpha 3 domain, His tagged) (human); assay: SPR, antibody captured;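 also: SPR with antibody held by surface-bound anti-Fc while His-tagged alpha three domains flow over, Kd derived by fitting a one-to-one binding model to sensograms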
T12 construct: also called huMICB*005 alpha 3-his
T12 chain: T10 chain with R12C, A15V, I35T, D48N, C72R, R73Q, S90G

[13] = target: T13, MICB*005 on HCC1534 cells (human, UniProt Q29980 23-383); assay: cell-based or functional assay
T13 sequence (looked up): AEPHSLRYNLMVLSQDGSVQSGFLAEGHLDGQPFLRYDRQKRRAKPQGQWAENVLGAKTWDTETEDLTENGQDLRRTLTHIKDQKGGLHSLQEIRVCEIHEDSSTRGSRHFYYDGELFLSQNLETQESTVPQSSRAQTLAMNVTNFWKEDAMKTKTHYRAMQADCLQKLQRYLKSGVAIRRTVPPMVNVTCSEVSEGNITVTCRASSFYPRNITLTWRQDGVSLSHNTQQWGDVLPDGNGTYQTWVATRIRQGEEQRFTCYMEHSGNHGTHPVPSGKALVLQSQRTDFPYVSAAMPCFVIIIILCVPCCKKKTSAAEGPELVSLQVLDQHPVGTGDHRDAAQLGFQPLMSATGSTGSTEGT

[14] = target: T14, MICA*004 on HCC1534 cells (human, UniProt Q29983 24-383); assay: cell-based or functional assay
[15] = target: T15, MICA*008 on MEL-JUSO cells (human, UniProt Q29983 24-317); assay: cell-based or functional assay
T15 chain: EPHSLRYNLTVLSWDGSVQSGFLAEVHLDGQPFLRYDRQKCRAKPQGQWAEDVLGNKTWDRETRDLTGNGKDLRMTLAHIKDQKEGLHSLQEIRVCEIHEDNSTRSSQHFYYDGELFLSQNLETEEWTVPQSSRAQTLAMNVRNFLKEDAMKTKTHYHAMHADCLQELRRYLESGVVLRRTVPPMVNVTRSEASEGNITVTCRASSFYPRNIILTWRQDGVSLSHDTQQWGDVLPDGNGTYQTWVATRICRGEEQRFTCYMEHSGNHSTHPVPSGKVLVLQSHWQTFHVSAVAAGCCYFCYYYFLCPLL

[16] = target: T16, MILL1-MICA chimera.murine IgG2a Fc fusion (mouse MILL1 with grafted human MICA*008 …); assay: ELISA, coated chimera
T16 construct: MICA*008 residues around NGTYQT on the 'back' and in the beta2 microglobulin interface grafted onto murine MILL1; also called MILL1-MICA*008 chimera

[17] = target: T10, MICA008.His (human MICA*008 alpha 3 …); assay: SPR (Biacore), MICA*008 alpha-3 domain
[18] = target: T13, MICB*005 on HCC1534 cells; assay: cell-based or functional assay; remark: listed apart in the source
[19] = target: T14, MICA*004 on HCC1534 cells; assay: cell-based or functional assay; remark: listed apart in the source
[20] = target: T13, MICB*005 on HCC1534 cells; assay: cell-based or functional assay; remark: listed apart in the source
[21] = target: MICA*002 on cells (PANC-1; B16-MICA002) (human, UniProt Q29983 24-383); assay: cell-based or functional assay
[22] = target: T14, MICA*004 on HCC1534 cells; assay: cell-based or functional assay; remark: listed apart in the source
[23] = target: T15, MICA*008 on MEL-JUSO cells; assay: cell-based or functional assay

binding result [1]: binds
binding result [2]: binds
binding result [3]: binds
binding result [4]: binds
binding result [5]: binds
binding result [6]: binds
binding result [7]: binds
binding result [8]: binds
Kd [9]: 1.96 nM
Kd [10]: 1.8 nM
Kd [11]: 0.66 nM
Kd [12]: 2.7 nM
% max inhibition of shedding [13]: 60%
EC50 of shedding inhibition [13]: 0.107 µg/mL
EC50 of shedding inhibition [14]: 0.107 µg/mL and 0.23 µg/mL
EC50 of shedding inhibition [15]: 0.195 µg/mL and 0.112 µg/mL
binding result [16]: binds
B1: 2E5.2.3 (antibody, V domains shown)
VH: QGQMQQSGAELVKPGASVKLSCKTSGFTFSDNYISWLKQKPGQSLEWIAWIYAGTGGTSYNQKFTAKAQLTVDTSSSTAYMQFSSLTTEDSAIYYCARHDYYGTSGAWFAYWGQGTLVTVSA
VL: DVLMTQTPLSLPVSLGDQASLSCRSSQNIVHINGNTYLEWYLQKPGQSPKLLIYKVSNRFSGVPDRFSGSGSGTDFTLKISRVEAEDLGVYYCFQGSHVPWTFGGGTKVEIK
notes: Mouse hybridoma antibody; constant regions differ by assay

binding result [1]: binds
binding result [4]: binds
binding result [5]: binds
binding result [6]: binds
binding result [7]: binds
binding result [8]: binds
Kd [17]: 2.6 nM
Kd [9]: 4.03 nM
Kd [10]: 2.03 nM
Kd [11]: 10.4 nM
Kd [12]: 6.18 nM
% max inhibition of shedding [13]: 48%
EC50 of shedding inhibition [13]: 0.0124 µg/mL
% max inhibition of shedding [14]: 74%
EC50 of shedding inhibition [14]: 0.012 µg/mL
% max inhibition of shedding [15]: 75%
EC50 of shedding inhibition [15]: 0.0191 µg/mL
B2: 18G3 (antibody, V domains shown)
VH: VQLQESGPGLVKPSQSLSLTCNVTGYSITGDYAWNWIRQFPGNKLEWIGYIGYTGSTTYNPSLKSRVSITRDTSKNQFFLQLNSVTPEDTATYYCARWRNWAMDYWGLGTSVTVSS
VL: DIQMTQTPSSLSASLGDRVTISCRANQDISHYLNWYQQKPDGAVKLLIYYTSRIHSGVPSRFSGSGSGTDYSLTIANLEQEDVATYFCQQGNTPPTTFGGGTKVEIK
notes: Mouse variable domains; constant regions differ by assay

binding result [1]: binds
binding result [4]: binds
binding result [5]: binds
binding result [6]: binds
binding result [7]: binds
binding result [8]: binds
Kd [17]: 1.9 nM
Kd [9]: 7.02 nM
Kd [10]: 1.48 nM
Kd [11]: 25.8 nM
Kd [12]: 10.7 nM
% max inhibition of shedding [13]: 54%
EC50 of shedding inhibition [13]: 0.139 µg/mL
% max inhibition of shedding [14]: 76%
EC50 of shedding inhibition [14]: 0.0689 µg/mL
% max inhibition of shedding [15]: 81%
EC50 of shedding inhibition [15]: 0.0103 µg/mL
B3: 12H10 (antibody, V domains shown)
VH: DVQLQESGPGLVKPSQPLSLTCTVTGYSITSNYAWNWIRQFPGDKLEWMGYISSSGITKSNPSLKSRISITRDTSKNQFFLQLNSLTTEDTATYYCSRWSNWSFDVWGAGTTVTVSS
VL: DIQMTQTPSSLSVSLGDRVTINCRASQDIHNYFNWYQQKPDGTIKLLIYYTSRFHSGVPSRFSGSGSGTDYSLTISNLEEEDIATYFCQQGNSLPPTFGGGTKLEIK
notes: as for B2

binding result [4]: binds
binding result [5]: binds
binding result [6]: binds
binding result [7]: binds
binding result [8]: binds
Kd [17]: 0.5 nM
Kd [9]: 0.49 nM
Kd [10]: 0.42 nM
Kd [11]: 0.67 nM
Kd [12]: 1.09 nM
% max inhibition of shedding [13]: 54%
EC50 of shedding inhibition [13]: 0.0128 µg/mL
% max inhibition of shedding [14]: 81%
EC50 of shedding inhibition [14]: 0.0435 µg/mL
% max inhibition of shedding [15]: 77%
EC50 of shedding inhibition [15]: 0.0087 µg/mL
maximum inhibition of shedding [18]: ~50%
maximum inhibition of shedding [19]: ~60%
EC50 of shedding inhibition [20]: 0.0386 µg/mL
Max % Inhibition of shedding [20]: 59%
EC50 of shedding inhibition [21]: 0.0342 µg/mL
Max % Inhibition of shedding [21]: 48%
EC50 of shedding inhibition [22]: 0.0136 µg/mL
Max % Inhibition of shedding [22]: 65%
EC50 of shedding inhibition [23]: 0.0207 µg/mL
Max % Inhibition of shedding [23]: 74%
B4: 1D5 (antibody, V domains shown)
VH: EIQLQQSGPELVKPGASVKVSCKASGYAFTSQNIYWVKQSHGKSLEWIGYIEPYNVVPMYNPKFKGKATLTVDKSSSSAYIHLNSLTSEDSAIYYCARSGSSNFDYWGQGTTLTVSS
VL: EIILTQSPTTMAASPGEKITITCSASSSISSHYLHWYQQKSGFSPKLLIYRTSNLASGVPARFSGSGSGTSYSLTIGTMEAEDVATYYCQQGSSLPLTFGAGTKVEIK
notes: Mouse variable domains; constant regions differ by assay (human IgG1 or mouse IgG2a); also called anti-MIC 1D5
